From patent publication US20210269548A1 (Kyowa Kirin, published 2021)

T1: mouse CSPG5 (mouse, UniProt Q71M36 31-566)
T1 construct: Full-length gene expressed on Expi293F cells; also called mouse CSPG5/Expi293F cells
T1 sequence: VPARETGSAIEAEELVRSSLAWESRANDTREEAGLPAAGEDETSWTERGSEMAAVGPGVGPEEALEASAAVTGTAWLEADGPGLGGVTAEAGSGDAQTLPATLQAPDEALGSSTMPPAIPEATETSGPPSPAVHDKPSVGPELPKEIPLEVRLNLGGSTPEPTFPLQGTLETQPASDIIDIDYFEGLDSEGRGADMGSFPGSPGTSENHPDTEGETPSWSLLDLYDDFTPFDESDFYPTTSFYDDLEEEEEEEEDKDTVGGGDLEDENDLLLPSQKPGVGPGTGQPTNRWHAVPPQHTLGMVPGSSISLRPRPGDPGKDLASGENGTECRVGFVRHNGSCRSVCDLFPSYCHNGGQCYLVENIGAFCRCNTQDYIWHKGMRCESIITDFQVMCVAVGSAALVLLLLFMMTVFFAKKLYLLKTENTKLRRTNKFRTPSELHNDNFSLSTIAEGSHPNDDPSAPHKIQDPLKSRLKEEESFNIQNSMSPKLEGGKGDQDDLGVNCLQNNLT

T2: monkey CSPG5 (monkey (rhesus monkey), UniProt O95196 31-566 (human entry))
T2 construct: Full-length gene expressed on Expi293F cells; also called monkey CSPG5/Expi293F cells; rhesus monkey CSPG5
T2 chain: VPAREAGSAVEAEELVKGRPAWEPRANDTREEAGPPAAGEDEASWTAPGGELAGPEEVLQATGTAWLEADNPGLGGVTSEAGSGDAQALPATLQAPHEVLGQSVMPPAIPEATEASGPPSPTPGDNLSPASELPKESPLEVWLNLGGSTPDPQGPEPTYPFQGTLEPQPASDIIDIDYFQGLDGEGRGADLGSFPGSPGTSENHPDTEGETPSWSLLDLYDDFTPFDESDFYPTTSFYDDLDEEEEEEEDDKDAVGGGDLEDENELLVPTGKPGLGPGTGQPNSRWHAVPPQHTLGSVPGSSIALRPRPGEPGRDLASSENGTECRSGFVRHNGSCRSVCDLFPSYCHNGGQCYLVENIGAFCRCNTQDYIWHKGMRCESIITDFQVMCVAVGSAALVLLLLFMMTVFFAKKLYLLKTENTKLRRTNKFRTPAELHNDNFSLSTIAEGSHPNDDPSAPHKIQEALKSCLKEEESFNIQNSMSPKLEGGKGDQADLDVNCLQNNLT

T3: human CSPG5 (human, UniProt O95196 31-566)
T3 construct: Full-length gene expressed on cell membrane (Expi293F, L929); also called human CSPG5/Expi293F cells; human CSPG5/L929#09
T3 sequence: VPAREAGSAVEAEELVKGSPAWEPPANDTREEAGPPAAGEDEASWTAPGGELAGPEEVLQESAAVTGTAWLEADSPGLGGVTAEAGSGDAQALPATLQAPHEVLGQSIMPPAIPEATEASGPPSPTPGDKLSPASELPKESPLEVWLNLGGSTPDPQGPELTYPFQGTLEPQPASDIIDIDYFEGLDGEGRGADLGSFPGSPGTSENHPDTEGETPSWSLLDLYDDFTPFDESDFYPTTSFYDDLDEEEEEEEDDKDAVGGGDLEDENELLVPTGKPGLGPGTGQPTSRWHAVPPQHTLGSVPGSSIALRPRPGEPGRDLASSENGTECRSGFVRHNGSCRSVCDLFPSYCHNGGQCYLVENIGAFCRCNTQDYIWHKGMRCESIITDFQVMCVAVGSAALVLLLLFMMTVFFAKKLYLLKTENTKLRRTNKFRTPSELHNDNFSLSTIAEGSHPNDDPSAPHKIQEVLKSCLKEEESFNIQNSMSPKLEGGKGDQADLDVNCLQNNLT


Assays:
mouse CSPG5 [1] = target: T1, mouse CSPG5; experiment: FACS, 10 µg/mL antibody, mouse CSPG5/Expi293F vs Expi293F
Method: (§1) Expi293F cells, human CSPG5/Expi293F cells, mouse CSPG5/Expi293F cells, and monkey CSPG5/Expi293F cells were separately suspended in Staining Buffer (SB) of PBS comprising 0.1% NaN₃ and 1% FBS and dispensed in a round-bottom 96-well plate (manufactured by Becton, Dickinson and Company). After centrifugation (2000 rpm, 4° C., 2 minutes), the supernatant was removed, and to the resulting pellet, 10 μg/mL of each antibody obtained in Example 2 was added to suspend the pellet, and the resulting suspension was left to stand for 30 minutes at ice temperature. After further centrifugation (2000 rpm, 4° C., 2 minutes), the supernatant was removed, and the resulting pellet was washed with SB, and thereafter, 1 μg/mL of an RPE fluorescently labeled goat anti-human antibody (manufactured by Southern Biotech, Inc.) was added thereto, and the resultant was incubated for 30 minutes at ice temperature. After washing with SB, the cells were suspended in SB, and the fluorescence intensity of each cell was measured using a flow cytometer FACS CANTO II (manufactured by Becton, Dickinson and Company). Note that as a negative control, 10 μg/mL of the anti-AVM antibody was used.
(§2) The detection results were analyzed, and a mean fluorescence intensity (MFI) was calculated using a geometric mean. Further, with respect to the MFI when the concentration of each antibody was 10 μg/mL, the ratio of the MFI (mean fluorescence intensity ratio) between the human CSPG5/Expi293F cells and the Expi293F cells (parent cell line) was calculated. Also for the monkey CSPG5/Expi293F cells and the mouse CSPG5/Expi293F cells, the mean fluorescence intensity ratio relative to the Expi293F cells (parent cell line) was calculated by the same procedure, and the results are shown in Table 3.

mouse CSPG5-GST = mouse CSPG5-GST (mouse); experiment: SPR Biacore T-100, antibody captured, mouse CSPG5-GST analyte
Method: The affinity of the anti-CSPG5 antibodies, the CSPG5202 IgG4PE(R409K), and the AVM IgG4PE(R409K) CSPG5202 dscFv produced in Example 2 for human CSPG5 and mouse CSPG5 was measured using Biacore T-100 (GE Healthcare).
Each of the antibodies was immobilized on a […] sensor chip using a Human antibody Capture kit, and the binding ability was evaluated using human CSPG5-GST and mouse CSPG5-GST produced in Example 4 as analytes. The obtained sensorgram was analyzed with BIA evaluation software, and the dissociation constant (KD value) was calculated.

monkey CSPG5 [2] = target: T2, monkey CSPG5; experiment: FACS, 10 µg/mL antibody, monkey CSPG5/Expi293F vs Expi293F
Method: as §1, §2

human CSPG5 [3] = target: T3, human CSPG5; experiment: FACS, 10 µg/mL antibody, human CSPG5/Expi293F vs Expi293F
Method: as §1, §2

monkey CSPG5 [4] = target: T2, monkey CSPG5; experiment: FACS on CSPG5/Expi293F cells
Method: as §1

mouse CSPG5 [5] = target: T1, mouse CSPG5; experiment: FACS on CSPG5/Expi293F cells
Method: as §1

human CSPG5 [6] = target: T3, human CSPG5; experiment: FACS on CSPG5/Expi293F cells
Method: as §1

Mean fluorescence intensity ratio (mouse CSPG5 [1])	Kd (mouse CSPG5-GST) [nM]	Mean fluorescence intensity ratio (monkey CSPG5 [2])	Mean fluorescence intensity ratio (human CSPG5 [3])	binding result (monkey CSPG5 [4])	binding result (mouse CSPG5 [5])	binding result (human CSPG5 [6])	Binder
5.81 ratio to parent cell line	≤ 10	3.36 ratio to parent cell line	5.46 ratio to parent cell line				CSPG5168 scFv-hG4PE(R409K) (Fc fusion, also called anti-CSPG5 scFv-Fc antibody) VH: EVQLVETGGALVQPGGSLRLSCAGSGFIFSKYEMTWVRQAPGKGLEWVSTIGSLGLKTFYTDSVKGRFTTSRDNSRDTLFLQMDNLRVEDTAIYFCVKGGIRRADYWGKGTLVTVSS VL: EIVMTQSPATLSLSPGERATLSCRASQSVSSYLAWYQQKPGQAPRLLIYDASNRATGIPARFSGSGSGTDFTLTISSLEPEDFAVYYCQQRSNWPLTFGGGTKVEIK
3.44 ratio to parent cell line	≤ 10	3.56 ratio to parent cell line	3.24 ratio to parent cell line				CSPG5115 scFv-hG4PE(R409K) (Fc fusion, also called anti-CSPG5 scFv-Fc antibody) VH: EVQLVQSGAEVKKPGASLKVSCKASGYSFTDYIIHWVRQAPGQSLEWMGWINGGSGVPKYSDKFQGRVTITRDTSANTAYMEIRSLGSEDTAVYYCARGGVCSGDKCYYYGMDVWGQGTTVTVSS VL: QSVLTQPPSVSVSPGQTASITCSGDKLGDKYSWWYQQKPGQSPLLVIHQDNKRPSGIPERFSGSNSGNTATLTIVGTQAMDEADYYCQAWDRGVVFGGGTKLTVL
	≤ 10			binds	binds	binds	AVM IgG4PE(R409K) CSPG5202 dscFv (bispecific antibody, also called anti-AVM-IgG4-CSPG5 dscFv bispecific antibody) heavy: not shown light: QFVLSQPNSVSTNLGSTVKLSCKRSTGNIGSNYVSWYQQHEGRSPTTMIYRDDKRPDGVPDRFSGSIDRSSDSALLTINNVQTEDEADYFCQSYSSGINIFGGGTKLTVLGQPKAAPSVTLFPPSSEELQANKATLVCLISDFYPGAVTVAWKADSSPVKAGVETTTPSKQSNNKYAASSYLSLTPEQWKSHRSYSCQVTHEGSTVEKTVAPTECS
20.4 ratio to parent cell line	≤ 10	8.01 ratio to parent cell line	18.5 ratio to parent cell line				CSPG5120 scFv-hG4PE(R409K) (Fc fusion, also called anti-CSPG5 scFv-Fc antibody) VH: EVQLVQSGGGLVQPGGSLRLSCAASGFTFSNYWMTWVRQAPGEGPEWVANINQDGSQKYYVDSVKGRFTISRDNAKNSLNLQMNNLRAEDTALYYCAKSNAMDVWGQGTLVTVSS VL: DIVMTQSPLSLPVTPGEPASISCRSSESLLHSNGYNYLNWYLQKPGQSPQLLIYLGSHRASGVPDRLSGSGSDTDFTLKISRVEAEDVGIYYCMQGRQTPITFGGGTKLEIK
